Laboratory results as given in PMC10231827.

Experiments:
[1] = target: S2P.OmiBA1-1208.H8 (SARS CoV-2 (Omicron BA.1)); experiment: SEC
hACE2-Fc (human) = hACE2-Fc (human) (UniProt Q9BYF1); experiment: BLI; ACE2-Fc (10 ug/ml in kinetic buffer) captured on anti-human IgG Fc capture (AHC) biosensors, S2P glycoproteins as analyte; 30°C; association 300 s, dissociation 300 s; 1:1 binding model

| Substance | percent dissociated to a lower-order form after freeze-thaw [1] | Kd (hACE2-Fc (human)) | Req (hACE2-Fc (human)) | koff (hACE2-Fc (human)) | kon (hACE2-Fc (human)) |
| --- | --- | --- | --- | --- | --- |
| S2P.OmiBA1-1208.H8 (domain or fragment) | 15% |  |  |  |  |
| S2P.OmiBA1-FHA (domain or fragment) |  | 0.641 nM | 0.35 nm | 0.00027 s⁻¹ | 420000 M⁻¹ s⁻¹ |
